Here are results for 19 molecules from patent US20250101071A1 (PAUL EHRLICH INSTITUT BUNDESINSTITUT F R IMPFSTOFFE UND …, published 2025).

T1: recombinant human CD32b protein, biotinylated (human, UniProt P31994 43-217)
T1 construct: also called CD32b-His; recombinant CD32b protein
T1 sequence: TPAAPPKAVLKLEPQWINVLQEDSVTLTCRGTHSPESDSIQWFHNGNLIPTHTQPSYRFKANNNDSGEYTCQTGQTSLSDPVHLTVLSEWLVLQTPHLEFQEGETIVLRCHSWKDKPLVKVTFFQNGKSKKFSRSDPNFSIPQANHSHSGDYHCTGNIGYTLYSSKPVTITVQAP

T2: human CD32b expressed on cells (human, UniProt P31994 43-310)
T2 construct: also called SupT1-CD32b; CHO-CD32b
T2 sequence: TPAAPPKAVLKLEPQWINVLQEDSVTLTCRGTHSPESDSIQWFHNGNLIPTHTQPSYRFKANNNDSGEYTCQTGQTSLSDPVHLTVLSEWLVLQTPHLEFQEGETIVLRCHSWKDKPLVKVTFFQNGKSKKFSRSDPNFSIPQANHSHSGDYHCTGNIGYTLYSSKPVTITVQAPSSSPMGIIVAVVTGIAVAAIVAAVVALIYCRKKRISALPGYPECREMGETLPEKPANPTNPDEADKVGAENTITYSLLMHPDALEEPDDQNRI

B1: DARPin 53.A8 (designed binder)
chain: DLGKKLLEATRAGQDDEVRILMANGANVNATDEEGLTPLHLAALDGHLEIVEVLLKYGADVNADDMHGPTPLHLAAYAGHLEIVEVLLKYGADVNAYDCGGHTPLHLAARLGHLEIVEVLLKYGADVNAQDKFGKTPFDLAIDNGNEDIAEVLQKAA
B2: DARPin 53.A11 (designed binder)
chain: DLGKKLLEATRAGQDDEVRILMANGADVNATDEEGLTPLHLAALIGHLEIVEVLLKYGADVNAADMDGTTPLHLAAQEGHLEIVEVLLKYGADVNADDFWGHTPLHLAAWFGHLEIVEVLLKHGADVNAQDKFGKTPFDLAIDNGNEDIAEVLQKAA
notes: also called 53.C9; 53.F7
B3: DARPin 53.B10 (designed binder)
chain: DLGKKLLEATRAGQDDEVRILMANGADVNATDEEGLTPLHLAALIGHLEIVEVLLKYGADVNAADMDGTTPLHLAAQEGHLEIVEVLLKYGADVNADDFWGHTPLHLAAWFGHLEIVEVLLKNGADVNAQDKFGKTPFDLAIDNGNEDIAEVLQKAA
B4: DARPin 53.G7 (designed binder)
chain: DLGKKLLEATRAGQDDEVRILMANGADVNATDEEGLTPLHLAVLIGHLEIVDVLLKYGADVNAADMDGTTPLHLAAQEGHLEIVEVLLKYGADVNADDFWGHTPLHLAAWFGHLEIVEVLLKHGADVNAQDKFGKTPFDLAIDNGNEDIAEVLQKAA
B5: DARPin 53.2.D6 (designed binder)
chain: DLGKKLLDAASAGQDDEVRILMANGADVNATDEEGLTPLHLAALIGHLEIVEVLLKYGADVNAADMDGTTPLHLAAQEGHLEIVEVLLKYGADVNADDFWGHTPLHLAAWFGHLEIVEVLLKHGADVNAQDKFGKTPFDLAIDNGNEDIAEVLQKAA
B6: DARPin 53.2.E10 (designed binder)
chain: DLGKKLLEATRAGQDDEVRILMANGADVNTTDEEGLTPLHLAALIGHLEIVEVLLKYGADVNAADMDGTTPLHLAAQEGHLEIVEVLLKYGADVNADDFWGHTPLHLAAWFGHLEIVEVLLKHGADVNAQDKFGKTPFDLAIDNGNEDIAEVLQKAA
B7: DARPin 53.2.H9 (designed binder)
chain: DLGKKLLEATRAGQDDEVRILMANGADVNATDEEGLTPLHLAALIGHLEIVEVLLKYGADVNAADMDGTTPLHLAVQEGHLEIVEVLLKYGADVNADDFWGHTPLHLAAWFGHLEIVEVLLKYGADVNAQDKFGKTPFDLAIDNGNEDIAEALQKAA
B8: DARPin 53.D7 (designed binder)
chain: DLGKKLLEAARAGQDDEVRILMANGADVNATDEEGLTPLHLAALIGHLEIVEVLLKYGADVNAADMDGTTPLHLAAQEGHLEIVEVLLKYGADVNADDFWGHTPLHLAAWFGHLEIVEVLLKNGADVNAQDKFGKTPFDLAIDNGNEDIAEVLQKAA
B9: DARPin 53.2.B6 (designed binder)
chain: DLGKKLLEATRAGQDDEVRILMANGADVNATDEEGLTPLHLAALIGHLEIVEVLLKYGADVNAADMDGTTPLHLAAQEGHQEIVEVLLKYGADVNADDFWGHTPLHLAAWFGHLEIVEVLLKHGADVNAQDKFGKIPFDLAIDNGNEDIAEVLQKAA
B10: DARPin 53.E11 (designed binder)
chain: DLGKKLLEAARAGQDDEVRILMANGADVNATDEEGLTPLHLAALIGHLEIVEVLLKYGTDVNAADMDGTTPLHLAAQEGHLEIVEVLLKYGADVNADDFWGHTPLHLAAWFGHLEIVEVLLKHGADVNAQDKFGKTPFDLAIDNGNEDIAEVLQKAA
B11: DARPin 53.2.H5 (designed binder)
chain: DLGKKLLEATRAGQDDEVRILMANGADVNATDEEGLTPLHLAALIGHLEIVEVLLKYDADVNAADMDGTTPLHLAAQEGHLEIVEVLLKYGADVNADDFWGHTPLHLAPWFGHLEIVEVLLNHGADVNAQDKFGKTPFDLAIDNGNEDLAEVLQKAA
B12: DARPin 53.B8 (designed binder)
chain: DLGKKLLEATRAGQDDEVRILMTNGTDVNATDEEGLTPLHLAALIGHPEIVEVLLKYGADVNAADMDGTTPLHLAAQEGHLEIVEVLLKYCADVNADDFWGHTPLHLAAWFGHLEIVEVLLKYGADVNAQDKFGKTPFDLAIDNGNEDIAEVLQKAA
B13: DARPin 53.H9 (designed binder)
chain: DLGKKLLEATRAGQDDEVRILMANGADVNATDEEGLTPLHLAALIGHLEIVEVLLKYGADVNAVDMDGTTPLHLAAQEGHLEIVEVLLKYGADVNADDFWGHTPLHLAAWFGHLEIVEVLLKHGADVNAQDKFGKTPFDLAIDNGNEDIAQVLQKAA
B14: DARPin 53.2.H4 (designed binder)
chain: DLGKKLLEATRAGQDDEVRILMANGADVNTTDEEGLTPLHLAALIGHLEIVEVLLKYGADVNAADMDGTTPLHLAAQEGHLEIVEVLLKYGADVNADDFWGHTPLHLAAWFGHLEIVDVLLANVADVNANSAQSKTPFDLAIDNGNEDIAEVLQKAA
B15: DARPin 53.A10 (designed binder)
chain: DLGKKLLEAARAGQDDEVRILMSNGADVNAWDKEGVTPLHLAAVHGHLEIVEVLLKHGADVNAQDDVGMTPLHLAAHWGHLEIVEVLLKYGADVNAQDYAGMTPLHLAAFQGHLEIVEVLLKHGADVNAQDKFGKTPFDLAIDNGNEDIAQVLQKAA
B16: DARPin 53.G1 (designed binder)
chain: DLGKKLLEATRAGQDDEVRILMSNGADVNAWDKEGVTPLHLAAVHGHLEIVEVLLKHGADVNAQDDVGMTPLHLAAHWGHLEIVEVLLKYGADVNAQDYAGMTPLHLAAFQGHLEIVEVLLKHGADVNAQDKFGKTPFDLAIDNGNEDIAEVLQKAA
B17: DARPin 53.2.C8 (designed binder)
chain: DLGKKLLEAARAGQDDAVRILMANGADANAYDHMGETPLHLAAMEGHLEIVEVLLKHGADVNADDWDGQTPLHLAAHWGHLEIVEVLLKYGADVKEQDVVGYTPLHLAAWIGHLEIVEVLLKNGADVNAQDKFGKTPFDLAIDNGNEDIAEVLQKAA
B18: DARPin 53.C1 (designed binder)
chain: DLGKKLLEAARVGQDDEVRILMANGADVNATDNEGQTPLHLAAMWGHLEIVEVQLKHGADVNASDTFGSTPLHLAARFGHLEIVEVLLKYGADVNAADTEGFTPLHLAAIDGHLEIVEVLLKHGADVNAQDKFGKTPFDLAIDNGNEDIAEVLQKAA
B19: DARPin 53.D11 (designed binder)
chain: DLGKKLLEAARAGQDDEVRILMANGADVNATDITGATPLHLAAMWGHLEIVEVLLKYGADVNAQDYEGYTTLHLAAMWGHLEIVEVLLKYGADVNAHDVAGHTPLHLATHFGHLEIVEVLLKHGADVNAQDKFGKTPFDLAIDNGNEDIAEVLQKAA

The target of the first experiment is T3, neutravidin (UniProt P02701 25-152).
T3 construct: also called neutravidin NA chip (Cytiva)
T3 sequence (P02701 25-152): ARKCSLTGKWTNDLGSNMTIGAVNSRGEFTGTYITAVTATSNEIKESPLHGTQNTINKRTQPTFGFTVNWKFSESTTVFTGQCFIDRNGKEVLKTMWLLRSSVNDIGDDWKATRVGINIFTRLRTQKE
Put plainly: SPR, Biacore T200, neutravidin NA chip. (In general: Surface plasmon resonance follows binding to a sensor surface in real time, without labels.)
In the case of B1, the binding result is reported as “no binding”.

In a further experiment the target is T1, recombinant human CD32b protein, …. The experiment can be described thus: SPR, Biacore T200, biotinylated CD32b on neutravidin chip.
Regarding B1, the binding result is “no binding”.

The next experiment concerns the target T2, human CD32b expressed on cells. The experiment can be described thus: flow cytometry, crude E. coli extract on SupT1-CD32b cells. For orientation: Flow cytometry measures light scatter and fluorescence of single cells or particles in a stream.
Turning to B1, the binding result is reported as “no binding (tested: 5-25 µl of crude DARPin extracts)”. Same read-out and setting: under B2 stands “no binding (tested: 5-25 µl of crude DARPin extracts)”.

Regarding B3, the binding result was “no binding (tested: 5-25 µl of crude DARPin extracts)”.

Take B4: the binding result is reported as “no binding (tested: 5-25 µl of crude DARPin extracts)”.

For the molecule B5, the binding result is “no binding (tested: 5-25 µl of crude DARPin extracts)”. Same read-out and setting: under B6 stands “no binding (tested: 5-25 µl of crude DARPin extracts)”; under B7, “no binding (tested: 5-25 µl of crude DARPin extracts)”; under B8, “no binding (tested: 5-25 µl of crude DARPin extracts)”. Still for that read-out and setting: then B9, with “no binding (tested: 5-25 µl of crude DARPin extracts)”. Same read-out and setting: under B10 stands “no binding (tested: 5-25 µl of crude DARPin extracts)”. As for B11, the binding result is on record as “no binding (tested: 5-25 µl of crude DARPin extracts)”.

Consider B12, for which the binding result is on record as “no binding (tested: 5-25 µl of crude DARPin extracts)”. On the same count and under the same terms, under B13 stands “no binding (tested: 5-25 µl of crude DARPin extracts)”; under B14, “no binding (tested: 5-25 µl of crude DARPin extracts)”. With B15, the binding result is on record as “no binding (tested: 5-25 µl of crude DARPin extracts)”. On to B16, for which the binding result is recorded as “no binding (tested: 5-25 µl of crude DARPin extracts)”. In the case of B17, the binding result is “no binding (tested: 5-25 µl of crude DARPin extracts)”. Same read-out and setting: under B18 stands “no binding (tested: 5-25 µl of crude DARPin extracts)”; under B19, “no binding (tested: 5-25 µl of crude DARPin extracts)”.
